Reference: US20220162261A1 (published 2022)
Where two headings read alike, the source gives them in different places. Bridge positions count the residues as written; N and C are the ends. Square brackets hold non-standard residues; d marks the D form. Phe(4-tBu) = CC(C)(C)c1ccc(C[C@H](N)C(=O)O)cc1; NMeR = CN[C@@H](CCCNC(=N)N)C(=O)O; β3hE = N[C@@H](CCC(=O)O)CC(=O)O; NMeK = CN[C@@H](CCCCN)C(=O)O; Pen = CC(C)(S)[C@H](N)C(=O)O; dNMeK = CN[C@H](CCCCN)C(=O)O

B1: SEQ ID NO: 67 (peptide)
peptide: Ac-[Pen][NMeR]SDTL[Pen]WE[dK]-NH2
modifications: disulfide 1-7; not fully specified (residue 10); printed as (Ac Pen N-Me-R S D T L Pen W E k NH2)2 DIG, disulfide Pen-Pen; also: homodimer via DIG linker
notes: also called Peptide Z
B2: SEQ ID NO: 153 (peptide)
peptide: Ac-[Pen][NMeR]SDTL[Pen][Phe(4-tBu)][β3hE][dK]-NH2
modifications: disulfide 1-7
SMILES: CC(=O)N[C@@H]1C(=O)N(C)[C@@H](CCCNC(=N)N)C(=O)N[C@@H](CO)C(=O)N[C@@H](CC(=O)O)C(=O)N[C@@H]([C@@H](C)O)C(=O)N[C@@H](CC(C)C)C(=O)N[C@H](C(=O)N[C@@H](Cc2ccc(C(C)(C)C)cc2)C(=O)N[C@@H](CCC(=O)O)CC(=O)N[C@H](CCCCN)C(N)=O)C(C)(C)SSC1(C)C
B3: SEQ ID NO: 218 (peptide)
peptide: Ac-[Pen][NMeR]SDTL[Pen][Phe(4-tBu)][β3hE][dK]-NH2
modifications: disulfide 1-7; not fully specified (residue 10); printed as (Ac Pen N-Me-R S D T L Pen F(4-tBu) b-H-E k NH2)2 DIG, disulfide Pen-Pen; also: dimer, two subunits joined by DIG linker
notes: also called peptide 218
B4: SEQ ID NO: 149 (peptide)
peptide: Ac-[Pen][NMeR]SDTL[Pen][Phe(4-tBu)][β3hE][NMeK]-NH2
modifications: disulfide 1-7; not fully specified (residue 10); printed as (Ac Pen N-Me-R S D T L Pen F(4-tBu) b-H-E N-Me-K NH2)2 DIG, disulfide Pen-Pen; also: homodimer (…)2 DIG via Lys10 NZ
B5: SEQ ID NO: 214 (peptide)
peptide: Ac-[Pen][NMeR]SDTL[Pen]WE[dNMeK]-NH2
modifications: disulfide 1-7; not fully specified (residue 10); printed as (Ac Pen N-Me-R S D T L Pen W E N-Me-k NH2)2 DIG, disulfide Pen-Pen; also: dimer, two subunits joined by DIG linker
notes: also called peptide 214
B6: SEQ ID NO: 216 (peptide)
peptide: Ac-[Pen][NMeR]SDTL[Pen]W[dE][dK]-OH
modifications: disulfide 1-7; not fully specified (residue 10); printed as (Ac Pen N-Me-R S D T L Pen W e k OH)2 DIG, disulfide Pen-Pen; also: dimer, two subunits joined by DIG linker
notes: also called peptide 216
B7: SEQ ID NO: 215 (peptide)
peptide: Ac-[Pen][NMeR]SDTL[Pen]WE[NMeK]-NH2
modifications: disulfide 1-7; not fully specified; printed as [Ac-Pen-(N-Me-Arg)-Ser-Asp-Thr-Leu-Pen-Trp-Glu-(N-Me-Lys)-NH2]2-DIG; also: homodimer: two identical subunits joined by DIG linker at the Lys10 side chains, each subunit has its own Pen1-Pen7 disulfide
notes: also called peptide 215
B8: SEQ ID NO: 152 (peptide)
peptide: Ac-[Pen][NMeR]SDTL[Pen][Phe(4-tBu)][β3hE]-OH
modifications: disulfide 1-7
SMILES: CC(=O)N[C@@H]1C(=O)N(C)[C@@H](CCCNC(=N)N)C(=O)N[C@@H](CO)C(=O)N[C@@H](CC(=O)O)C(=O)N[C@@H]([C@@H](C)O)C(=O)N[C@@H](CC(C)C)C(=O)N[C@H](C(=O)N[C@@H](Cc2ccc(C(C)(C)C)cc2)C(=O)N[C@@H](CCC(=O)O)CC(=O)O)C(C)(C)SSC1(C)C
B9: Peptide Z-biotin (peptide)
peptide: Ac-[Pen][NMeR]SDTL[Pen]WE[dK]-NH2
modifications: disulfide 1-7; not fully specified (residue 10); printed as (Ac-Pen-(N-Me-Arg)-S-D-T-L-Pen-W-E-k-NH2)2-DIG; also: homodimer: two subunits joined by DIG linker, biotin label, attachment not given here
B10: SEQ ID NO: 78 (peptide)
peptide: Ac-[Pen][NMeR]SDTL[Pen]WE[dK]-OH
modifications: disulfide 1-7; not fully specified (residue 10); printed as (Ac Pen N-Me-R S D T L Pen W E k OH)2 DIG, disulfide Pen-Pen; also: homodimer: two subunits linked by DIG via D-Lys10 side chain
B11: SEQ ID NO: 213 (peptide)
peptide: Ac-[Pen][NMeR]SDTL[Pen]W[β3hE][dK]-NH2
modifications: disulfide 1-7; not fully specified (residue 10); printed as (Ac Pen N-Me-R S D T L Pen W b-h-E k NH2)2 DIG, disulfide Pen-Pen; also: dimer, two subunits joined by DIG linker
notes: also called peptide 213; Peptide XX
B12: SEQ ID NO: 217 (peptide)
peptide: Ac-[Pen][NMeR]SDTL[Pen]WE[dK]-NH2
modifications: disulfide 1-7; not fully specified (residue 10); printed as (Ac Pen N-Me-R S D T L Pen W E k NH2)2 DIG, disulfide Pen-Pen; also: dimer, two subunits joined by DIG linker
notes: also called peptide 217

What was measured:
[1] = target: T1, human α4β1 integrin on cells (human, UniProt P13612 34-1032; P05556 21-798); assay: Jurkat cell adhesion to VCAM-1
T1 construct: whole, on cells; also called α4β1 cell; Jurkat cells

[2] = target: T2, human α4β7 integrin on cells (human, UniProt P13612 34-1032; P26010 20-798); assay: PBMC memory T cell adhesion
T2 construct: whole, on cells; also called α4β7 cell (Hu); RPMI8866 cells

[3] = target: T3, α4β1 (R&D Systems #5668-A4) (UniProt P13612 34-970; P05556 21-728, limits assumed); assay: competition ELISA vs VCAM-1
T3 construct: bought; also called soluble α4β1

[4] = target: T4, rh integrin α4β7 (R&D Systems #5397-A30) (human, UniProt P13612 34-970; P26010 20-723); assay: competition ELISA vs MAdCAM-1
T4 construct: bought; coated on a nickel coated plate; also called immobilized α4β7; immobilized α4β7 integrin protein

[5] = target: T2, human α4β7 integrin on cells; assay: RPMI8866 cell adhesion to MAdCAM-1
[6] = target: T2, human α4β7 integrin on cells; assay: RPMI8866 cell adhesion to MAdCAM-1; remark: listed apart in the source
[7] = target: T4, rh integrin α4β7 (R&D Systems #5397-A30); assay: competition ELISA vs MAdCAM-1; remark: listed apart in the source
[8] = target: T5, mouse α4β7 integrin on TK1 cells (mouse, UniProt Q00651 41-1039; P26011 20-806); assay: TK1 cell adhesion to MAdCAM-1
T5 construct: whole, on cells; also called α4β7 cell (Mu); Cell Adhesion α4β7 Mouse
T5 sequence (Q00651 41-1039, chain 1 of 2): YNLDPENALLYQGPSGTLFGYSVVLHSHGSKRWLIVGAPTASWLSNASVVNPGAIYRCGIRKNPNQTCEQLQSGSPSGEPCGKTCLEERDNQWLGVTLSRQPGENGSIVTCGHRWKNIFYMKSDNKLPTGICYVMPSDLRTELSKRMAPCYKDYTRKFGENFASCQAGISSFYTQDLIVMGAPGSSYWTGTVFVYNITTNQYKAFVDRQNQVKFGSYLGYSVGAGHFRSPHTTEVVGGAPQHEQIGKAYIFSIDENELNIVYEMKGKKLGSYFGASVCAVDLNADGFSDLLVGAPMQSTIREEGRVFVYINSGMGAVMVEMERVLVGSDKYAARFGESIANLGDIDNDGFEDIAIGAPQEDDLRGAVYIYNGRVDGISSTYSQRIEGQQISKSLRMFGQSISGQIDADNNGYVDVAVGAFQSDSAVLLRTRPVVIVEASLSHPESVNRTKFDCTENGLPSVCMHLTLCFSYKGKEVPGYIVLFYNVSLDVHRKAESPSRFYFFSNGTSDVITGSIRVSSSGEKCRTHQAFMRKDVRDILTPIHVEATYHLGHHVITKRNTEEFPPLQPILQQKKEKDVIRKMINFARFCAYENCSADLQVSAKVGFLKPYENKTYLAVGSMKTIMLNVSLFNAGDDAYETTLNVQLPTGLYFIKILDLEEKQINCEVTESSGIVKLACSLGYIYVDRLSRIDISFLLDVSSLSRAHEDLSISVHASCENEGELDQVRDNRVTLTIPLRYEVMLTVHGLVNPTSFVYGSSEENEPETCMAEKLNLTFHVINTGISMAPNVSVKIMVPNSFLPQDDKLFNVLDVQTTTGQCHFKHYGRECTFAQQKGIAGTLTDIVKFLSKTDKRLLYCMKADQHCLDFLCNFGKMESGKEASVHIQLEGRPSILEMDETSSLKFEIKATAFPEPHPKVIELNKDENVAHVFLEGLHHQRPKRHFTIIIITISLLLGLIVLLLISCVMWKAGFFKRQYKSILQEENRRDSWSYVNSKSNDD
T5 sequence (P26011 20-806, chain 2 of 2): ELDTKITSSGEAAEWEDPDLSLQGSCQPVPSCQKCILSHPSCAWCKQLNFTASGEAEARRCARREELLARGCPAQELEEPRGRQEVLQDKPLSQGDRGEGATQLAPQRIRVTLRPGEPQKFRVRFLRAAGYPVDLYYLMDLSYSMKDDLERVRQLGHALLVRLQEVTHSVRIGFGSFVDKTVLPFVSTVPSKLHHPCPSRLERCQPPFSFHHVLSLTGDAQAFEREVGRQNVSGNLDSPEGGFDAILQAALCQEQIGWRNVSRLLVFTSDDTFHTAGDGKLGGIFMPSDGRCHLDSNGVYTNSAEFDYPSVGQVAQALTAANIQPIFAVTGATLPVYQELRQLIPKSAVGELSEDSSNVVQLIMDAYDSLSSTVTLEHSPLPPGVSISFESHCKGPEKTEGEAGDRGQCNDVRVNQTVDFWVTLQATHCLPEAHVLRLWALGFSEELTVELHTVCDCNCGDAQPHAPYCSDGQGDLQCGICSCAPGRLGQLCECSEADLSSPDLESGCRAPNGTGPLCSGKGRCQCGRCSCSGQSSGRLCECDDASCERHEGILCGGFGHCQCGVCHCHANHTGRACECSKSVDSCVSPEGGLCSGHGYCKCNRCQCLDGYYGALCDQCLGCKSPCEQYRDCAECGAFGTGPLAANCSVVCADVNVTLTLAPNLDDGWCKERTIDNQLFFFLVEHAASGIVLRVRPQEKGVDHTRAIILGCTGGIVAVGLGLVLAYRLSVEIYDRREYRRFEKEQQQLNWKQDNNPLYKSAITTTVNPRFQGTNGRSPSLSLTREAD

[9] = target: T3, α4β1 (R&D Systems #5668-A4); assay: competition ELISA vs VCAM-1; remark: listed apart in the source
[10] = target: T1, human α4β1 integrin on cells; assay: Jurkat cell adhesion to VCAM-1; remark: listed apart in the source
[11] = target: T5, mouse α4β7 integrin on TK1 cells; assay: TK1 cell adhesion to MAdCAM-1; remark: listed apart in the source
[12] = target: T2, human α4β7 integrin on cells; assay: PBMC memory T cell adhesion; remark: listed apart in the source
soluble α4β7 integrin = target: T6, soluble α4β7 integrin (UniProt P13612 34-970; P26010 20-723, limits assumed); assay: SPR, binder on streptavidin chip, soluble α4β7
T6 construct: analyte of the SPR experiment

| Binder | IC50 [1] [nM] | IC50 [2] [nM] | IC50 [3] [nM] | IC50 [4] [nM] | IC50 [5] [nM] | IC50 [6] [nM] | IC50 [7] [nM] | IC50 [8] [nM] | IC50 [9] [nM] | IC50 [11] [nM] | also measured |
| --- | --- | --- | --- | --- | --- | --- | --- | --- | --- | --- | --- |
| Ac-C[NMeR]SDTL[Pen]W[dK]-NH2 (disulfide 1-7; also: homodimer via DIG linker on D-Lys9 side chains, also called peptide 204) [SEQ ID NO: 204] | > 100000 | 1280 | 463 | 2 | 22 | – | – | – | – | – | – |
| B1 | – | – | – | – | – | ≤ 10 | ≤ 10 | ≤ 10 | > 100 | – | IC50 [10]: > 100000 nM |
| B2 | – | – | – | – | – | > 10 | > 10 | > 10 | > 1000 | – | – |
| B3 | > 100000 | 2 | 490 | 2.8 | 0.78 | – | – | – | – | 0.5 | – |
| B4 | – | – | – | – | – | ≤ 10 | ≤ 10 | ≤ 10 | > 500 | – | IC50 [12]: ≤ 10 nM |
| B5 | – | 24.5 | 436 | 4.1 | 2.5 | – | – | – | – | 1.1 | – |
| B6 | > 100000 | 14.5 | 247 | 2.8 | 4.2 | – | – | – | – | 1 | – |
| B7 | – | 16.5 | 270 | 2.2 | 3 | – | – | – | – | 0.9 | – |
| Ac-[Pen][NMeR]SDTL[Pen]W[dE][dK]-NH2 (disulfide 1-7; also: dimer, two subunits joined by DIG linker, also called peptide 211) [SEQ ID NO: 211] | > 100000 | – | 302 | 3 | 22 | – | – | – | – | 7.3 | – |
| Ac-C[NMeR]SDTL[Pen][dK]-NH2 (disulfide 1-7; also: homodimer via IDA linker on D-Lys8 side chains, also called peptide 203) [SEQ ID NO: 203] | > 100000 | – | 700 | 7.5 | 200 | – | – | – | – | 633 | – |
| B8 | – | – | – | – | – | ≤ 10 | ≤ 10 | ≤ 10 | > 100 | – | IC50 [12]: > 25 nM |
| XRSDTLXWK ((Ac Pen N-Me-R S D T L Pen W k NH2)2 DIG; disulfide Pen-Pen, also called peptide 209) [SEQ ID NO: 209] | > 100000 | 260 | 368 | 2.3 | 24 | – | – | – | – | 51 | – |
| B9 | – | – | – | – | – | – | – | – | – | – | Half-life for dissociation (soluble α4β7 integrin): 3.53 h; Kd (soluble α4β7 integrin): 52.1 nM; koff (soluble α4β7 integrin): 5.46e-05 s⁻¹ |
| B10 | – | – | – | – | – | ≤ 10 | ≤ 10 | ≤ 10 | > 100 | – | IC50 [10]: > 100000 nM |
| B11 | > 100000 | – | 539 | 4.7 | 12 | – | – | – | – | 4.2 | – |
| B12 | > 100000 | – | 315 | 2.3 | 3.2 | – | – | – | – | 1.2 | – |
